Experimental data from patent US20230023414A1, “METHODS AND DEVICES FOR TREATING A DISEASE WITH BIOTHERAPEUTICS” (PROGENITY, INC., priority 2018, published 2023).
Where “and” joins values, the source holds several entries; their conditions need not be identical. Equal values may be shown once. Read-outs that look alike come from different tables or passages of the source. Marks after values point to notes of the source that are not given here.

Legend:
[1] = cited from earlier work; for Baseline dose: Bioavail.: dose info for non-approved agents from clinical trial information
[2] = Pharmacokinetics (blood insulin) of regular human insulin (NOVOLIN R) after subcutaneous or intra-jejunal jet delivery in swine; assay type: in vivo, Yorkshire female swine; conditions: for Cmax / Tmax: blood insulin
Method: (§1) A total of 18 Yorkshire female swine in good health and weighing 60-70 kg each were included in this study. Swine were divided into two groups with 9 animals per group. […] A sham surgical laparotomy was performed. […] The jet delivery device was configured with the single nozzle in an axial orientation.
Swine were divided into two groups with 9 animals per group. […] In all 18 animals, a laparotomy procedure was performed to expose the abdominal cavity. Animals remained under anesthesia during the entire procedure for the PK/PD study.
For the laparotomy in group 02, a small segment of the jejunal mucosa and serosa was exposed by midline laparotomy and the jet delivery device was inserted through antimesenteric incision.
(§2) Blood samples were kept on wet ice until centrifugation and separation of plasma. […] Glucose was monitored every five (5) minutes during the study by portable glucose analyzer (StatStrip (SS) hospital glucose monitoring system (Nova Biomedical, Waltham, Mass.)). At each time point, approximate 0.1 mL of blood was drawn and immediately placed on a glucose monitoring test strip, and the whole blood glucose concentration was measured by the SS in triplicate.
The animals were anesthetized for the entire ECP.

[3] = test system: blood glucose; assay: Euglycemic clamp procedure: blood glucose and dextrose infusion after NOVOLIN R SC or IJ in swine; assay type: in vivo, Yorkshire female swine; conditions: for mean blood glucose level: euglycemic clamp, swine
Method: as §1, with “orientation. The device was held in place during the laparotomy insertion, and the nozzle outlet was directed to face the jejunal wall to direct the jet of the NOVOLIN® R to the GI tract.” for “orientation.”
as §2
A euglycemic clamp procedure (ECP) was employed to compare pharmacokinetics and pharmacodynamics of regular human Insulin (NOVOLIN® R) delivered subcutaneously (SC) in the neck versus intra-jejunally (IJ) by the jet delivery device in the small intestine. ECP was used to quantify the amount of glucose required to maintain normoglycemia after exogenous bolus of insulin. […] The animals were anesthetized for the entire ECP.

[4] = pig, in vivo; for (AUC)T0-T240 h ± SEM / Tmax: 1.2 mg
[5] = cited from earlier work
[6] = IJ administration by jet delivery device, swine, Average
[7] = IJ administration by jet delivery device, swine, individual animals
[8] = SC administration, swine, Average
[9] = SC administration, swine, individual animals

Molecule: tocilizumab
- Approved Dosing Info: Bio Avail ([1]; SC administration): 80%

Molecule: ustekinumab
- Approved Dosing Info: Bio Avail ([1]; SC administration): 78%

Molecule: sargramostim
- Approved Dosing Info: Bio Avail ([1]; IV administration): 100%

Molecule: somatropin
- Baseline dose: Bioavail. ([1]; SC administration): 80.5%

Molecule: Novolin® R: regular human insulin (recombinant), aqueous solution 100 units/mL with glycerol, metacresol, zinc chloride, pH 7.4
- blood insulin level ([2]; animal 18P18, SC administration group): significantly higher than the rest of the animals in the group
- Cmax [2, 6]: 77.40 uIU/mL
- Tmax [2, 6]: 55.63 min
- Cmax [2, 7]: 40.93 uIU/mL and 96.77 uIU/mL and 5.03 uIU/mL and 7.96 uIU/mL and 48.77 uIU/mL and 85.38 uIU/mL and 207.96 uIU/mL and 126.39 uIU/mL
- Tmax [2, 7]: 20 min and 50 min and 90 min (2×) and 40 min (3×)
- Cmax [2, 8]: 202.94 uIU/mL
- Tmax [2, 8]: 87.14 min
- Cmax [2, 9]: 451.00 uIU/mL and 60.74 uIU/mL and 354.00 uIU/mL and 356.60 uIU/mL and 65.71 uIU/mL and 59.18 uIU/mL and 73.34 uIU/mL
- Tmax [2, 9]: 50 min (2×) and 180 min and 105 min and 30 min and 120 min
- time to maximum plasma concentration (Tmax) ([2]; jejunum administration group): 55.63 min
- time to maximum plasma concentration (Tmax) ([2]; subcutaneous administration group): 87.14 min
- maximum plasma concentration Cmax, SC group versus IJ group ([2]; swine): higher than that of the IJ administration group
- AUC of blood insulin, SC group versus IJ group ([2]; swine, AUC0-420 min): higher than that of the IJ administration group
- mean dextrose infusion rate, IJ versus SC group ([3]; 75 minutes to 420 minutes post-administration): higher in the SC administration group
- mean blood glucose level ([3]; IJ administration group (jet delivery device)): 89.6 mg/dL
- mean blood glucose level ([3]; SC administration group): 83.5 mg/dL
- mean dextrose infusion rate, IJ versus SC group ([3]; first 70 minutes after administration): higher in the IJ administration group

Molecule: Dulaglutide: long-acting GLP-1 receptor agonist, about 63 kDa; GLP-1 analogue linked to modified human IgG4 Fc; TRULICITY solution 3 mg/mL
- Approved Dosing Info: Bio Avail ([1]; SC administration): 65%
- AUCID (±SEM) [4]: 3890.00 ± 94.73 ng·h/mL
- Bioavailability relative to SC [4]: 49.11 ± 0.08% ^a
- (AUC)T0-T240 h ± SEM [4]: 4355.86 ± 1094.57 ^a ng · hr/mL
- Tmax [4]: 8 h
- Bioavailability relative to IV ([4]; iv): 100%
- (AUC)T0-T240 h ± SEM ([4]; iv): 16429.33 ± 600.93 ng·h/mL
- Tmax ([4]; iv): 1 h
- Bioavailability relative to SC ([4]; sc): 100%
- (AUC)T0-T240 h ± SEM ([4]; sc): 8869 ± 887.33 ng·h/mL
- Tmax ([4]; sc): 6 h

Molecule: dalteparin
- bioavailability by SC injection ([1]; SC injection): approximately 87%
- half-life ([1]; in vivo): 3 to 5 h
- stability at room temperature [5]: stable at room temperature

Molecule: golimumab
- Approved Dosing Info: Bio Avail ([1]; SC administration): 51%

Molecule: denosumab
- Approved Dosing Info: Bio Avail ([1]; SC administration): 61%

Molecule: certolizumab pegol
- Approved Dosing Info: Bio Avail ([1]; SC administration): 80%

Molecule: CC[C@H](C)[C@H](NC(=O)[C@H](CCC(=O)O)NC(=O)[C@H](CO)NC(=O)[C@@H](NC(=O)[C@@H](N)CO)C(C)C)C(=O)N[C@@H](CCC(N)=O)C(=O)N[C@@H](CC(C)C)C(=O)N[C@@H](CCSC)C(=O)N[C@@H](Cc1cnc[nH]1)C(=O)N[C@@H](CC(N)=O)C(=O)N[C@@H](CC(C)C)C(=O)NCC(=O)N[C@@H](CCCCN)C(=O)N[C@@H](Cc1cnc[nH]1)C(=O)N[C@@H](CC(C)C)C(=O)N[C@@H](CC(N)=O)C(=O)N[C@@H](CO)C(=O)N[C@@H](CCSC)C(=O)N[C@@H](CCC(=O)O)C(=O)N[C@@H](CCCN=C(N)N)C(=O)N[C@H](C(=O)N[C@@H](CCC(=O)O)C(=O)N[C@@H](Cc1c[nH]c2ccccc12)C(=O)N[C@@H](CC(C)C)C(=O)N[C@@H](CCCN=C(N)N)C(=O)N[C@@H](CCCCN)C(=O)N[C@@H](CCCCN)C(=O)N[C@@H](CC(C)C)C(=O)N[C@@H](CCC(N)=O)C(=O)N[C@@H](CC(=O)O)C(=O)N[C@H](C(=O)N[C@@H](Cc1cnc[nH]1)C(=O)N[C@@H](CC(N)=O)C(=O)N[C@@H](Cc1ccccc1)C(=O)O)C(C)C)C(C)C [teriparatide]
- Approved Dosing Info: Bio Avail ([1]; SC administration): 95%

Molecule: vedolizumab
- Approved Dosing Info: Bio Avail ([1]; IV administration): 100%

Molecule: glucagon (SC)
- Baseline dose: Bioavail. ([1]; SC administration): 100.0%

Molecule: secukinumab
- Approved Dosing Info: Bio Avail ([1]; SC administration): 73%

Molecule: CC[C@H](C)[C@H](NC(=O)[C@H](Cc1ccccc1)NC(=O)[C@H](CCC(=O)O)NC(=O)[C@H](CCCCNC(=O)COCCOCCNC(=O)COCCOCCNC(=O)CC[C@H](NC(=O)CCCCCCCCCCCCCCCCC(=O)O)C(=O)O)NC(=O)[C@H](C)NC(=O)[C@H](C)NC(=O)[C@H](CCC(N)=O)NC(=O)CNC(=O)[C@H](CCC(=O)O)NC(=O)[C@H](CC(C)C)NC(=O)[C@H](Cc1ccc(O)cc1)NC(=O)[C@H](CO)NC(=O)[C@H](CO)NC(=O)[C@@H](NC(=O)[C@H](CC(=O)O)NC(=O)[C@H](CO)NC(=O)[C@@H](NC(=O)[C@H](Cc1ccccc1)NC(=O)[C@@H](NC(=O)CNC(=O)[C@H](CCC(=O)O)NC(=O)C(C)(C)NC(=O)[C@@H](N)Cc1cnc[nH]1)[C@@H](C)O)[C@@H](C)O)C(C)C)C(=O)N[C@@H](C)C(=O)N[C@@H](Cc1c[nH]c2ccccc12)C(=O)N[C@@H](CC(C)C)C(=O)N[C@H](C(=O)N[C@@H](CCCNC(=N)N)C(=O)NCC(=O)N[C@@H](CCCNC(=N)N)C(=O)NCC(=O)O)C(C)C [Semaglutide]
- Approved Dosing Info: Bio Avail ([1]; SC administration): 89%

Molecule: natalizumab
- Approved Dosing Info: Bio Avail ([1]; IV administration): 100%

Molecule: alirocumab
- Approved Dosing Info: Bio Avail ([1]; SC administration): 85%

Molecule: etanercept
- Approved Dosing Info: Bio Avail ([1]; SC administration): 58%
